Experimental data taken from US20160137696A1 (Bristol-Myers Squibb, published 2016).
Starred links: 1 amine or outer side, 2 acyl side, 3 side chain; linkers in the order of their positions; H or OH if unused. Positions of bridges follow the written chain, without caps; N, C: chain ends. Non-standard residues stand in square brackets, D forms with d. Groups on a side chain read outwards from the residue. Primed or numbered codes have the meaning given here. No end group written: not given here. *: point of attachment. PEG8′ = PEG8 unit (23-azido-3,6,9,12,15,18,21-heptaoxatricosyl, i.e. an eight-unit PEG spacer) linking the triazole to vitamin E succinate; PEG11′ = PEG11 spacer (eleven ethylene glycol units, 3,6,...,33-undecaoxa) between the triazole and gamma-Glu-C18 diacid; Pra″ = its azide, alkyne or alkene has reacted where a group follows in round brackets; Pra(3) = propargylglycine, clicked to an azide to give a triazolyl-alanine; triazole = 1,2,3-triazole formed by click of the Pra alkyne with the azide; Trp(1-CH2CO) = O=C([C@H](Cc1cn(CC(=O)[*:3])c2ccccc12)N[*:1])[*:2]; Phe(3,4,5-F3) = N[C@@H](Cc1cc(F)c(F)c(F)c1)C(=O)O; C18 diacid = O=C(O)CCCCCCCCCCCCCCCCC(=O)*; γGlu = O=C(O)[C@H](CCC(=O)[*:2])N[*:1]; Aha = [N-]=[N+]=NCC[C@H](N)C(=O)O; Hyp = O=C(O)[C@@H]1C[C@@H](O)CN1; NMeF = CN[C@@H](Cc1ccccc1)C(=O)O; F3Phe = trifluoro-phenylalanine; NMeE = CN[C@@H](CCC(=O)O)C(=O)O; NMeNle = CCCC[C@H](NC)C(=O)O; Suc = O=C(CCC(=O)[*:2])[*:1]; triazole″ = not defined here; Bzt = benzothienylalanine; NMeA = CN[C@@H](C)C(=O)O; Orn = NCCC[C@H](N)C(=O)O; Pra = C#CC[C@H](N)C(=O)O; Dap = NC[C@H](N)C(=O)O; Sar = CNCC(=O)O

B1: Example 14056 (peptide)
peptide: YADPHKPWKWXXECGXD
modifications: as m107 (INT 1400B); Pra triazole-linked to vitamin E succinate 5-azidopentylamide
B2: INT-1400D (peptide)
peptide: {CH2CO}-Y[NMeA]DPHK[Hyp]WK[Trp(1-CH2CO)][NMeNle][NMeNle]ECG[Pra]G
modifications: thioether N-14; not fully specified (C-terminus); printed as ClAc-Tyr-mAla-Asp-Pro-His-Lys-Hyp-Trp-Lys-“Trp”-mNle-mNle-Glu-Cys-Gly-[(S)-propargylglycine]-Gly
B3: INT-1300Y (peptide)
peptide: {CH2CO}-Y[NMeA]DPHK[Hyp]WK[Trp(1-CH2CO)][NMeNle][NMeNle]ECG[Pra]-OH
modifications: thioether N-14
SMILES: C#CC[C@H](NC(=O)CNC(=O)[C@@H]1CSCC(=O)N[C@@H](Cc2ccc(O)cc2)C(=O)N(C)[C@@H](C)C(=O)N[C@@H](CC(=O)O)C(=O)N2CCC[C@H]2C(=O)N[C@@H](Cc2c[nH]cn2)C(=O)N[C@@H](CCCCN)C(=O)N2C[C@H](O)C[C@H]2C(=O)N[C@@H](Cc2c[nH]c3ccccc23)C(=O)N[C@@H](CCCCN)C(=O)N[C@@H](Cc2cn(CC(=O)O)c3ccccc23)C(=O)N(C)[C@@H](CCCC)C(=O)N(C)[C@@H](CCCC)C(=O)N[C@@H](CCC(=O)O)C(=O)N1)C(=O)O
notes: also called Intermediate 1300Y
B4: INT-1400G (peptide)
peptide: {CH2CO}-Y[NMeA]NP[Dap]L[Hyp]WSW[NMeNle][NMeNle]RCG[Pra]
modifications: thioether N-14; not fully specified (C-terminus); printed as ClAc-Tyr-mAla-Asn-Pro-Dap-Leu-Hyp-Trp-Ser-Trp-mNle-mNle-Arg-Cys-Gly-[(S)-propargylglycine]
notes: also called Intermediate 1400G
B5: INT-1400C (peptide)
peptide: {CH2CO}-Y[NMeA]DPHQ[Hyp]WSW[NMeNle][NMeNle]ECG[Pra]G
modifications: thioether N-14; not fully specified (C-terminus); printed as ClAc-Tyr-mAla-Asp-Pro-His-Gln-Hyp-Trp-Ser-Trp-mNle-mNle-Glu-Cys-Gly-[(S)-propargylglycine]-Gly
notes: also called Intermediate 1400C
B6: INT-1400K (peptide)
peptide: {CH2CO}-[F3Phe][NMeF][NMeNle][dP]DV[NMeF][Orn][dP]WYLCG[Pra]
modifications: thioether N-13; not fully specified (C-terminus); printed as ClAc-F3Phe-mPhe-mNle-dPro-Asp-Val-mPhe-Orn-dPro-Trp-Tyr-Leu-Cys-Gly-[(S)-propargylglycine]
notes: also called Intermediate 1400K
B7: INT-1400A (peptide)
peptide: {CH2CO}-Y[NMeA]DPHK[Hyp]WKW[NMeNle][NMeNle]ECG[Pra]G
modifications: thioether N-14; not fully specified (C-terminus); printed as ClAc-Tyr-mAla-Asp-Pro-His-Lys-Hyp-Trp-Lys-Trp-mNle-mNle-Glu-Cys-Gly-[(S)-propargylglycine]-Gly
notes: also called Intermediate 1400A
B8: INT-1400E (peptide)
peptide: {CH2CO}-Y[NMeA]DPHK[Hyp]WK[Trp(1-CH2CO)][NMeNle][NMeNle]ECG[Pra]D
modifications: thioether N-14; not fully specified (C-terminus); printed as ClAc-Tyr-mAla-Asp-Pro-His-Lys-Hyp-Trp-Lys-“Trp”-mNle-mNle-Glu-Cys-Gly-[(S)-propargylglycine]-Asp
notes: also called Intermediate 1400E
B9: INT-1400B (peptide)
peptide: {CH2CO}-Y[NMeA]DPHK[Hyp]WKW[NMeNle][NMeNle]ECG[Pra]D
modifications: thioether N-14; not fully specified (C-terminus); printed as ClAc-Tyr-mAla-Asp-Pro-His-Lys-Hyp-Trp-Lys-Trp-mNle-mNle-Glu-Cys-Gly-[(S)-propargylglycine]-Asp
notes: also called Intermediate 1400B
B10: Example 3619 (peptide)
peptide: {CH2CO}-F[NMeF][NMeNle][Sar]DV[NMeF]Y[NMeE]WYLCGGGK-NH2
modifications: thioether N-13
SMILES: CCCC[C@H]1C(=O)N(C)CC(=O)N[C@@H](CC(=O)O)C(=O)N[C@@H](C(C)C)C(=O)N(C)[C@@H](Cc2ccccc2)C(=O)N[C@@H](Cc2ccc(O)cc2)C(=O)N(C)[C@@H](CCC(=O)O)C(=O)N[C@@H](Cc2c[nH]c3ccccc23)C(=O)N[C@@H](Cc2ccc(O)cc2)C(=O)N[C@@H](CC(C)C)C(=O)N[C@H](C(=O)NCC(=O)NCC(=O)NCC(=O)N[C@@H](CCCCN)C(N)=O)CSCC(=O)N[C@@H](Cc2ccccc2)C(=O)N(C)[C@@H](Cc2ccccc2)C(=O)N1C
notes: order read from the list of couplings, which runs from C- to N-terminus
B11: Example 3214 (peptide)
peptide: {CH2CO}-[Phe(3,4,5-F3)][NMeF][NMeNle]PDV[NMeF]Y[NMeE]WYLCGGGK-NH2
modifications: thioether N-13; not fully specified (residue 4); printed as ClAc-Phe(3,4,5-tri-F)-[N-Me]Phe-[N-Me]Nle-cis-(D)-Pro(4-OH)-Asp-Val-[N-Me]Phe-Tyr-[N-Me]Glu-Trp-Tyr-Leu-Cys-Gly-Gly-Gly-Lys
notes: as for B10
B12: INT-1400F (peptide)
peptide: {CH2CO}-Y[NMeA]DPHK[Hyp]WKW[NMeNle][NMeNle]ECG[Pra]
modifications: thioether N-14; not fully specified (C-terminus); printed as ClAc-Tyr-mAla-Asp-Pro-His-Lys-Hyp-Trp-Lys-Trp-mNle-mNle-Glu-Cys-Gly-[(S)-propargylglycine]
notes: also called Intermediate 1400F
B13: INT-1400H (peptide)
peptide: {CH2CO}-Y[NMeA]DPHQ[Hyp]WSW[NMeNle][NMeNle]ECG[Pra]
modifications: thioether N-14; not fully specified (C-terminus); printed as ClAc-Tyr-mAla-Asp-Pro-His-Gln-Hyp-Trp-Ser-Trp-mNle-mNle-Glu-Cys-Gly-[(S)-propargylglycine]
notes: also called Intermediate 1400H

What follows are binders tested against T1, Recombinant Human PD-L1-TVMV-His (human, UniProt Q9NZQ7 19-239) (assay: HTRF vs PD-1-Ig; A = IC50 0.10-1.6 µM).
T1 construct: expressed in HEK293T cells; also called PD-L1-His; hPD-L1(19-239)-TVMV-His
Method: (§1) Homogenous Time-Resolved Fluorescence (HTRF) Assays of Binding of Soluble PD-1 to Soluble PD-L1. Soluble PD-1 and soluble PD-L1 refers to proteins with carboxyl-end truncations that remove the transmembrane-spanning regions and are fused to heterologous sequences, specifically the Fc portion of the human immunoglobuling G sequence (Ig) or the hexahistidine epitope tag (His). All binding studies were performed in an HTRF assay buffer consisting of dPBS supplemented with 0.1% (w/v) bovine serum albumin and 0.05% (v/v) Tween-20. For the PD-1-Ig/PD-L1-His binding assay, inhibitors were pre-incubated with PD-L1-His (10 nM final) for 15 m in 4 μl of assay buffer, followed by addition of PD-1-Ig (20 nM final) in 1 μl of assay buffer and further incubation for 15 m. PD-L1 fusion proteins from either human, cynomologous macaques, mouse, or other species were used. HTRF detection was achieved using europium crypate-labeled anti-Ig monoclonal antibody (1 nM final) and allophycocyanin (APC) labeled anti-His monoclonal antibody (20 nM final). Antibodies were diluted in HTRF detection buffer and 5 μl was dispensed on top of binding reaction. The reaction was allowed to equilibrate for 30 minutes and signal (665 nm/620 nm ratio) was obtained using an EnVision fluorometer. Additional binding assays were established between PD-I-Ig/PD-L2-His (20 and 5 nM, respectively), CD80-His/PD-L1-Ig (100 and 10 nM, respectively) and CD80-His/CTLA4-Ig (10 and 5 nM, respectively). Binding/competition studies between biotinylated Compound No. 71 and human PD-L1-His were performed as follows. Macrocyclic peptide inhibitors were pre-incubated with PD-L1-His (10 nM final) for 60 minutes in 4 μl of assay buffer followed by addition of biotinylated Compound No. 71 (0.5 nM final) in 1 μl of assay buffer. Binding was allowed to equilibrate for 30 minutes followed by addition of europium crypated labeled Streptavidin (2.5 pM final) and APC-labeled anti-His (20 nM final) in 5 μl of HTRF buffer. The reaction was allowed to equilibrate for 30 m and signal (665 nm/620 nm ratio) was obtained using an EnVision fluorometer.

T1 sequence (Q9NZQ7 other isoform, or with tags, fused parts or gaps limits assumed): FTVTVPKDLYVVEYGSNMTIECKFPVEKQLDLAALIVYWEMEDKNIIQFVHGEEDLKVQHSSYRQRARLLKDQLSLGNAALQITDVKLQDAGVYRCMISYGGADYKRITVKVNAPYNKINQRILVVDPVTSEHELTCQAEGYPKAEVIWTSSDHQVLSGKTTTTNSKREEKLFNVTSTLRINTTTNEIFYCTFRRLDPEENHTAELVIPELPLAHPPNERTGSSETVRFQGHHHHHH

IC50	Binder
100 to 1600 nM	{CH2CO}-Y[NMeA]DPHK[Hyp]WKW[NMeNle][NMeNle]ECG[Pra(3)]([triazole″-PEG8′-Suc-vitamin E])D (thioether N-14; reading uncertain) [Example 14057]
100 to 1600 nM	B1
100 to 1600 nM	{CH2CO}-Y[NMeA]NP[Dap]L[Hyp]WS[Bzt][NMeNle][NMeNle]RCG[Pra] (thioether N-14; not fully specified (residue 16)) [Example 14058]

The binders below were run against T1, Recombinant Human PD-L1-TVMV-His (assay: HTRF vs PD-1-Ig; C = IC50 0.0003-0.0099 µM).
Method: as §1

IC50	Binder
0.3 to 9.9 nM	B2
0.3 to 9.9 nM	B3
0.3 to 9.9 nM	B4
0.3 to 9.9 nM	B5
0.3 to 9.9 nM	B6
0.3 to 9.9 nM	B7
0.3 to 9.9 nM	B8
0.3 to 9.9 nM	B9
0.3 to 9.9 nM	B10
0.3 to 9.9 nM	B11
0.3 to 9.9 nM	{CH2CO}-Y[NMeA]DPHK[Hyp]WKW[NMeNle][NMeNle]ECG[Pra(3)]G (thioether N-14; not fully specified (residue 16, C-terminus)) [Example 14064]
0.3 to 9.9 nM	{CH2CO}-Y[NMeA]NP[Dap]L[Hyp]WS[Bzt][NMeNle][NMeNle]RCGG[Aha] (thioether N-14) [INT-1300C]
0.3 to 9.9 nM	B12
0.3 to 9.9 nM	B13
0.3 to 9.9 nM	{CH2CO}-Y[NMeA]DPHK[Hyp]WK[Trp(1-CH2CO)][NMeNle][NMeNle]ECG[Pra″]([triazole-PEG11′-γGlu-C18 diacid]) (thioether N-14) [Example 14092]
